Biological target: WT
Experiment: flow cytometry of CHO cells displaying the WT truncated domain, stained with labelled TRAIL; panel stands above the 2 ug/mL panel, its own TRAIL concentration is not labelled

Sequence of WT (chain, as listed by the source limits assumed, form in doubt): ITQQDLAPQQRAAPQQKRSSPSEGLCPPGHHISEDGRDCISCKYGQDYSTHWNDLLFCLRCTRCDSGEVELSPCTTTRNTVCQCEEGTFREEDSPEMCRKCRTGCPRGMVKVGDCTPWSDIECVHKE

Substance: APC-TRAIL (from UniProt P50591 114-281) (ligand)
- APC-A, SSC-A subset (percent of cells in the gate): 3.84%

— patent US20260258111A1
